Measured values published in patent publication US20080105961A1, “Ligands of the Molecule Fit (Agt-121) and their Pharmaceutical Use” (priority 2004, published 2008).

How the values were obtained:
[1] = target: T1, FIT-PR (FIT proline-rich region) (Homo sapiens, UniProt Q9BQI5); assay: Yeast two-hybrid screen of human brain cDNA library, bait FIT-PR; type: binding; conditions: clones listed highest to lowest interacting strength
T1 construct: expressed in transfected cells
T1 sequence (Q9BQI5 with tags, fused parts or gaps N255T/I269V/G270A/P271T/S276A/V280A/L285P/N289S/A308T/K311T/T318A/S335T/T339A/P340S/N342I/A348T/L352P/P357S/T358A/DEL367-367/L371P/I397L/D402E/F403C/P432S/P434T/T437A/R454S/S455C/T456S): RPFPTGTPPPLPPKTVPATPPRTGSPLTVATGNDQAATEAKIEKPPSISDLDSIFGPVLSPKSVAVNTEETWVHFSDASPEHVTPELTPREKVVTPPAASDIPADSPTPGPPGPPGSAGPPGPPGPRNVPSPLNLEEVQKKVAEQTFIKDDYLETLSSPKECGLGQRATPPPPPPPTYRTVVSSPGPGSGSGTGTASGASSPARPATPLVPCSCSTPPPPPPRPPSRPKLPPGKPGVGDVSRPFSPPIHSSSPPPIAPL
From the text: (§1) To investigate the mechanism by which FIT regulates energy balance, neural proteins that interact with FIT were identified. In order to perform these experiments, two truncated fragments of FIT were constructed to be used as baits in a yeast two-hybrid screen of a human brain cDNA library: one bait consisting of the N-terminal region plus the central proline-rich region, and the other bait consisting of the central proline-rich region alone. The inventors utilised a yeast two-hybrid system which incorporates modifications by Chevray and Nathans (1992), and Vidal et al. (1996) to screen a human brain cDNA library. FIT fragments were PCR amplified, purified and then cloned into an appropriate vector. Sense oligonucleotides for FIT-NP (5′-[…]-3′: SEQ ID NO:72), and FIT-PR (5′-[…]-3′: SEQ ID NO:73), with Sal1 restriction enzyme sites underlined, were used in conjunction with a common antisense oligonucleotide (5′-[…]-3′: SEQ ID NO:74), with the Not1 restriction enzyme site underlined.
(§2) Human brain cDNA inserts were prepared and cloned into the expression vector according to manufacturer's instructions.

[2] = target: T2, FIT-NP (FIT N-terminal plus proline-rich region) (Homo sapiens, UniProt Q9BQI5); assay: Yeast two-hybrid screen of human brain cDNA library, bait FIT-NP; type: binding; conditions: bait FIT-NP, human brain cDNA library; clones listed highest to lowest interacting strength
T2 construct: expressed in transfected cells
T2 sequence (Q9BQI5 with tags, fused parts or gaps I33M/P40L/N43H/V56A/I186T/P191L/T195L/E211G/Q212H/I230V/T240A/N255T/I269V/G270A/P271T/S276A/V280A/L285P/N289S/A308T/K311T/T318A/S335T/T339A/P340S/N342I/A348T/L352P/P357S/T358A/DEL367-367/L371P/I397L/D402E/F403C/A409E/P432S/P434T/T437A/R454S/S455C/T456S): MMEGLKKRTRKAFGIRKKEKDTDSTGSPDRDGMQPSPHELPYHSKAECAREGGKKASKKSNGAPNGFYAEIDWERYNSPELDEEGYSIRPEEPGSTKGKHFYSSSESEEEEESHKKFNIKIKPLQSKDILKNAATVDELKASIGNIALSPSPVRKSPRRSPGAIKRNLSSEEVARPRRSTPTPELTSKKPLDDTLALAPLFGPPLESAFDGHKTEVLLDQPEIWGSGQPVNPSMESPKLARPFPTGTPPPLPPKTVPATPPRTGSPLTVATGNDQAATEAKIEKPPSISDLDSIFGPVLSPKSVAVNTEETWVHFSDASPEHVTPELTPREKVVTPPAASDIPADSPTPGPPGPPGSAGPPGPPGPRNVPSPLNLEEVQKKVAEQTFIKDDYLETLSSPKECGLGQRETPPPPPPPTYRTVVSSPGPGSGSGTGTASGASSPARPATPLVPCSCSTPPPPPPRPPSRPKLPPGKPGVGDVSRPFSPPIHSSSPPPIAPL
From the text: as §1, with “In” for “To investigate the mechanism by which FIT regulates energy balance, neural proteins that interact with FIT were identified. In”
as §2

Number of clones [1]: 1
Number of clones [2]: 10
B1: Homo sapiens regulatory factor X, 2 (RFX2): FIT interacting protein isolated from a human brain cDNA library (protein)
chain: MQNSEGGADSPASVALRPSAAAPPVPASPQRVLVQAASSNPKGAQMQPISLPRVQQVPQQVQPVQHVYPAQVQYVEGGDAVYTNGAIRTAYTYNPEPQMYAPSSTASYFEAPGGAQVTVAASSPPAVPSHSMVGITMDVGGSPIVSSAGAYLIHGGMDSTRHSLAHTSRSSPATLEMAIENLQKSEGITSHKSGLLNSHLQWLLDNYETAEGVSLPRSSLYNHYLRHCQEHKLDPVNAASFGKLIRSVFMGLRTRRLGTRGNSKYHYYGIRLKPDSPLNRLQEDTQYMAMRQQPMHQKPRYRPAQKTDSLGDSGSHSGLHSTPEQTMAVQSQHHQQYIDVSHVFPEFPAPDLGSFLLQDGVTLHDVKALQLVYRRHCEATVDVVMNLQFHYIEKLWLSFWNSKASSSDGPTSLPASDEDPEGAVLPKDKLISLCQCDPILRWMRSCDHILYQALVEILIPDVLRPVPSTLTQAIRNFAKSLEGWLTNAMSDFPQQVIQTKVGVVSAFAQTLRRYTSLNHLAQAARAVLQNTSQINQMLSDLNRVDFANVQEQASWVCQCEESVVQRLEQDFKLTLQQQSSLDQWASWLDSVVTQVLKQHAGSPSFPKAARQFLLKWSFYSSMVIRDLTLRSAASFGSFHLIRLLYDEYMFYLVEHRVAEATGETPIAVMGEFNDLASLSLTLLDKDDMGDEQRGSEAGPDARSLGEPLVKRERSDPNHSLQGI
modifications: left off: large carriers
